{"source": "patent US20230146533A1", "about": "“KERATIN BD-10, PREPARATION METHOD THEREFOR AND PHARMACEUTICAL COMPOSITION AND USE THEREOF” (INSTITUTE OF MATERIA MEDICA, CHINESE ACADEMY OF MEDICAL …, priority 2019, published 2023)", "molecules": {"B1": {"name": "BD-10: recombinant keratin with amino acid sequence SEQ ID NO:1, expressed in E. coli inclusion bodies, band around 55 kD (protein, listed as Bos taurus)", "chain": "MSCRSYRISPGYSVTRTFSSCSAVAPKTGSRCCITAAPYRGVSCYRGLTGFGSRSVSALGSCGPRIAVGGFRAGSCNRSFGYRSGGVGGLSPPCITTVSVNESLLTPLNLEIDPNAQCVKHEEKEQIKNLNSRFAAFIDKVRFLEQQNKLLETKWQFYQNQRCCESNLEPLFNGYIETLRREAEHVEADGGRLASELNHVQEVLEGYKKKYEEEVALRATAENEFVVLKKDVDCAYLRKSDLEANVEALVEESNFLKRLYDEEIQILNAHISDTSVIVKMDNSRDLNMDCVVAEIKAQYDDIASRSRAEAESWYRNKCEEMKATVIRHGETLRRTKEEINELNRIIQRLTAEIENAKCQRTKLEAAVAEAEQQGEAALNDARCKLAGLEEALQKAKQDMACLLKEYQEVMNSKLGLDIEIATYRRLLEGEEQRLCEGVGSVNVCVSSSRGGVTCGGLTYSTTAGRQIASGPVATGGSITVLAPDSCVPCQPRASSFSCGSSRSVRFA"}}, "key": {"[1]": {"tested_on": "lipopolysaccharide (LPS) induced fever in SD rats", "assay": "Lipopolysaccharide (LPS) induced fever model in SD rats", "type": "in vivo", "settings": "for Body temperature 2 hours after modeling / Body temperature 4 hours after modeling / Body temperature 6 hours after modeling / Body temperature 8 hours after modeling: LPS 20 μg/kg i.p., SD rats", "procedure": "Animals: 230-260 grams of male SD rats; Drugs: lipopolysaccharide (LPS, SIGMA L-2880), aspirin (SIGMA A2093), protein BD-10; Instruments: electronic balance (SARTORIUS BP121S type), electronic clinical thermometer (CITIZEN CT-513W type).\nMethod: the method of intraperitoneal injection of Lipopolysaccharide to replicate rat fever model.\nPreparation of experimental animals: After the experimental animals adapt to the experimental environment (temperature 22° C.±2° C., relative humidity 50%±2%) for 1 day. Pre-adaptation to measure rectal temperature at 8:00 and 15:00, rats were fasted and water was taken freely 12 h before experiment, and let the animal to empty its feces before measuring the rectal temperature. Apply petroleum jelly to the electronic thermometer probe before each temperature measurement. Insert the rat rectum 2 cm (can be marked at 2 cm to ensure that the depth of each insertion is consistent), and record the body temperature after the reading is stable.\nIntraperitoneal injection of lipopolysaccharide to replicate rat fever model: The body temperature of the rats was measured before modeling. Qualified rats with a body temperature of 36.2-37.3° C. were selected and randomly divided into groups with 8 rats in each group. After oral administration of aspirin and different doses of protein BD-10, lipopolysaccharide (20 μg/kg, 2 ml/kg) was injected intraperitoneally immediately, and the normal control group was injected intraperitoneally with an equal volume of normal saline. The body temperatures of the rats were monitored after 2 hours for a total of 8 hours.\nAccording to the body temperature measured at each time point on the day of the experiment, calculate the mean, standard deviation and standard error of the body temperature of each group of rats. The data of each group was compared with TTEST, and P<0.05 was considered as a significant difference."}, "[2]": {"tested_on": "PLO-induced epilepsy in mice", "assay": "Pilocarpine (PLO) induced convulsive epilepsy in mice", "type": "in vivo, ICR mice", "set-up": "mortality rate: unit not given here", "settings": "for Grade IV seizure rate / mortality rate / Grade II seizure incubation period / Grade III seizure incubation period / Grade IV seizure incubation period / Cases of deaths / Cases of Grade IV: PLO 225 mg/kg i.p.; for Grade IV seizure rate / mortality rate: 10 mice; for Grade II seizure incubation period / Grade III seizure incubation period / Grade IV seizure incubation period: mean ± SEM; for Grade IV seizure incubation period: mice not reaching Grade IV recorded as maximum 1800 seconds; for Cases of deaths / Cases of Grade IV: of 10 mice; for Cases of Grade IV: 30 minutes observation", "procedure": "Animals: male ICR mice; Drugs: Pilocarpine HCl (PLO, pilocarpine, pilocarpine hydrochloride), Diazepam (diazepam tablets), protein BD-10.\nExperiment grouping: • Model group: • Diazepam 2 mg/kg group; • Protein BD-10, 50 mg/kg group, 200 mg/kg group.\nThe drug was administered once in the afternoon the day before modeling, PLO-225 mg/kg (modeling agent) was injected intraperitoneally 1 hour after the test drug was administered intragastrically on the day of modeling. And positive drug can be administered once 20 minutes before modeling. Observe for 30 minutes after PLO injection.\nObservation indicators: (1)Seizure situation: the time of seizures from Grade II to Grade IV; (2)the time to death.\nSeizure grade: Refer to Racine grading standard: Grade 0: No response; Grade I: manifested as twitching of facial muscles or the corners of the mouth; Grade II: can nod; Grade III: twitching of one limb; Grade IV: rigidity or body twitching; Grade V: generalized epilepsy (generalized tonic seizures).\nCount the number of Grade IV seizures and deaths in each group of mice in the experiment; Grade II, III and IV incubation period. […] Chi-square test was used for statistics of the number of cases. The mean value and standard error of the incubation period were calculated, and TTEST was used to compare the model group with other groups. P<0.05 was considered as a significant difference."}, "[3]": {"tested_on": "mice cough induced by ammonia water", "assay": "Antitussive test, cough induced by ammonia water in mice", "type": "in vivo, ICR mice", "settings": "for Incubation period (cough) / Number of coughs: 10% ammonia water atomized 10 seconds one hour later, X ± SEM; for Number of coughs: coughs within 2 minutes", "procedure": "Animals: male ICR mice; Drugs and reagents: dextromethorphan hydrobromide, ammonia water, 0.2% CMC-Na, protein BD-10; Apparatus: Compressed nebulizer (403T type), balance (XS105DU type). Experiment grouping: • Solvent control group; • Dextromethorphan 15 mg/kg group; • Protein BD-10, 20 mg/kg group, 50 mg/kg group.\nDextromethorphan and different doses of protein BD-10 (administration volume 10 ml/kg) were given orally in groups, and the solvent control group was given the same volume of distilled water. One hour later, mice were put into a sealed box and atomized 10% ammonia water for 10 seconds, and then observed and recorded the incubation period of cough in mice and the number of coughs in 2 minutes.\nRecord the time point of oral administration, the time point of atomization experiment, the incubation period of mice cough and the number of coughs within 2 minutes, respectively. The incubation period of cough refers to the number of seconds from the start of the atomization of ammonia to the occurrence of cough. The performance of coughing in mice is based on contraction of their abdominal muscles (breast contraction) and opening their mouths at the same time. Calculate the mean and standard error of each group of data, and use TTEST to compare the model group with other groups, and P<0.05 is considered as a significant difference."}, "[4]": {"tested_on": "acetic acid writhing of ICR mice", "assay": "Acetic acid writhing test in ICR mice", "type": "in vivo", "settings": "for Frequency of writhing / Writhing incubation period: observed within 15 minutes", "procedure": "Animals: male ICR mice; Drugs and reagents: aspirin, physiological saline, glacial acetic acid, protein BD-10. Experiment grouping: • Model group; • Aspirin 300 mg/kg group; • Protein BD-10, 50 mg/kg group, 200 mg/kg group.\nOne day after the experimental animals adapt to the environment, Aspirin 300 mg/kg, protein BD-10 50 mg/kg, 200 mg/kg were given orally one hour in advance, and the administration volume was 10 ml/kg; Then, 0.6% acetic acid solution was injected intraperitoneally, and the incubation period (seconds) and frequency of writhing in the animal was observed within 15 minutes.\nCalculate the mean and standard error of the data in each group. Compared with the model group by TTEST, P<0.05 was considered as statistically different."}, "[5]": {"settings": "BD-10 50 mg/kg oral one hour before 0.6% acetic acid i.p."}, "[6]": {"settings": "BD-10 200 mg/kg oral one hour before 0.6% acetic acid i.p."}}}
{"molecule": "B1", "values": [{"measurement": "Effect on body temperature of model rats (in words)", "setting": "[1]; BD-10 10 mg/kg dose group, 2 hours after modeling, vs model group P<0.05", "value": "can significantly reduce the body temperature"}, {"measurement": "Body temperature 2 hours after modeling", "setting": "[1]; BD-10 10 mg/kg oral", "value": "37.3 ± 0.1", "unit": "°C"}, {"measurement": "Body temperature 4 hours after modeling", "setting": "[1]; BD-10 10 mg/kg oral", "value": "37.8 ± 0.1", "unit": "°C"}, {"measurement": "Body temperature 6 hours after modeling", "setting": "[1]; BD-10 10 mg/kg oral", "value": "37.8 ± 0.1", "unit": "°C"}, {"measurement": "Body temperature 8 hours after modeling", "setting": "[1]; BD-10 10 mg/kg oral", "value": "37.6 ± 0.1", "unit": "°C"}, {"measurement": "Body temperature 2 hours after modeling", "setting": "[1]; BD-10 50 mg/kg oral", "value": "37.3 ± 0.2", "unit": "°C"}, {"measurement": "Body temperature 4 hours after modeling", "setting": "[1]; BD-10 50 mg/kg oral", "value": "37.7 ± 0.2", "unit": "°C"}, {"measurement": "Body temperature 6 hours after modeling", "setting": "[1]; BD-10 50 mg/kg oral", "value": "37.9 ± 0.2", "unit": "°C"}, {"measurement": "Body temperature 8 hours after modeling", "setting": "[1]; BD-10 50 mg/kg oral", "value": "37.6 ± 0.1", "unit": "°C"}, {"measurement": "Effect on body temperature rise (in words, summary)", "setting": "[1]; BD-10, dose not stated, 2 hours after modeling", "value": "has a significant effect of reducing body temperature rise"}, {"measurement": "Incubation period of epilepsy Grade III, comparison with model group (in words)", "setting": "[2]; BD-10 50 mg/kg dose group, PLO model", "value": "statistically different from the model group"}, {"measurement": "Grade IV seizure rate", "setting": "[2]; BD-10 50 mg/kg intragastric", "value": 90, "unit": "%"}, {"measurement": "mortality rate", "setting": "[2]; BD-10 50 mg/kg intragastric", "value": 0}, {"measurement": "Grade II seizure incubation period", "setting": "[2]; BD-10 50 mg/kg intragastric", "value": "93 ± 4", "unit": "s"}, {"measurement": "Grade III seizure incubation period", "setting": "[2]; BD-10 50 mg/kg intragastric", "value": "166 ± 8", "unit": "s"}, {"measurement": "Grade IV seizure incubation period", "setting": "[2]; BD-10 50 mg/kg intragastric", "value": "871 ± 144", "unit": "s"}, {"measurement": "Cases of deaths", "setting": "[2]; BD-10 50 mg/kg intragastric", "value": 0}, {"measurement": "Cases of Grade IV", "setting": "[2]; BD-10 50 mg/kg intragastric", "value": 9}, {"measurement": "Grade IV seizure rate", "setting": "[2]; BD-10 200 mg/kg intragastric", "value": 70, "unit": "%"}, {"measurement": "mortality rate", "setting": "[2]; BD-10 200 mg/kg intragastric", "value": 0}, {"measurement": "Grade II seizure incubation period", "setting": "[2]; BD-10 200 mg/kg intragastric", "value": "90 ± 6", "unit": "s"}, {"measurement": "Grade III seizure incubation period", "setting": "[2]; BD-10 200 mg/kg intragastric", "value": "151 ± 7", "unit": "s"}, {"measurement": "Grade IV seizure incubation period", "setting": "[2]; BD-10 200 mg/kg intragastric", "value": "918 ± 198", "unit": "s"}, {"measurement": "Cases of deaths", "setting": "[2]; BD-10 200 mg/kg intragastric", "value": 0}, {"measurement": "Cases of Grade IV", "setting": "[2]; BD-10 200 mg/kg intragastric", "value": 7}, {"measurement": "Effect on incubation period of Grade III epilepsy (in words, summary)", "setting": "[2]; BD-10, dose not stated, PLO model", "value": "can significantly prolong the incubation period of Grade III epilepsy"}, {"measurement": "Incubation period (cough)", "setting": "[3]; BD-10 20 mg/kg oral", "value": "31.4 ± 2.6", "unit": "s"}, {"measurement": "Number of coughs", "setting": "[3]; BD-10 20 mg/kg oral", "value": "55.3 ± 4.2"}, {"measurement": "Incubation period (cough)", "setting": "[3]; BD-10 50 mg/kg oral", "value": "29.4 ± 3.0", "unit": "s"}, {"measurement": "Number of coughs", "setting": "[3]; BD-10 50 mg/kg oral", "value": "59.8 ± 3.9"}, {"measurement": "Effect on incubation period and number of coughs (in words)", "setting": "[3]; BD-10, dose not stated, not statistically significant", "value": "has a tendency to prolong the incubation period and reduce the number of coughs"}, {"measurement": "Effect on writhing (in words)", "setting": "[4]; BD-10 50 mg/kg and 200 mg/kg dose groups, vs model group P<0.05", "value": "can significantly reduce the number of writhing mice"}, {"measurement": "Frequency of writhing", "setting": "[4]; [5]", "value": "22.7 ± 3.9", "unit": "times"}, {"measurement": "Writhing incubation period", "setting": "[4]; [5]", "value": "237.4 ± 44.8", "unit": "s"}, {"measurement": "Frequency of writhing", "setting": "[4]; [6]", "value": "19.8 ± 3.7", "unit": "times"}, {"measurement": "Writhing incubation period", "setting": "[4]; [6]", "value": "251.2 ± 43.3", "unit": "s"}, {"measurement": "Effect on number of writhing times (in words, summary)", "setting": "[4]; BD-10, dose not stated", "value": "can significantly reduce the number of writhing times"}]}
